In publication PMC2140169:

Legend:
[1] = target: GST-Nup358 fragment 2500-C (amino acid 2500 to the COOH terminus) (UniProt P49792); experiment: solid-phase binding assay in microtiter wells
[2] = target: GST-Nup358 fragment amino acids 2550-2837 (region between Ran-binding domains three and four, without FXFG repeats) (UniProt P49792); experiment: solid-phase binding assay in microtiter wells

- percent of added protein bound [1]: 20%
- fold reduction in binding against the domain containing FXFG repeats (2503-2893) [2]: 5 fold
Substance: SUMO-1-modified NΔ419 (RanGAP1 amino acids 420-589) (from UniProt P46061 420-589) (complex)
